Assay [1] addresses T1, human CD3 expressed on cells (human, UniProt P07766 23-207; P04234 22-171; P09693 23-182).
T1 construct: whole, on cells; CD3 complex on Jurkat cells and on human primary T cells
Briefly: flow cytometry, 25 nM. The method, boiled down: (§1)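 25 nM Ab in FACS buffer (PBS+2% FBS), 30 min at 4° C on CD3+ cells; flow cytometry MFI normalized to isotype = FOI; cutoff ≥10 for positive.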
In general terms: Flow cytometry measures light scatter and fluorescence of single cells or particles in a stream.

Assay [2] deals with T2, cynomolgus monkey CD3 expressed on primary T cells (cynomolgus monkey, UniProt Q95LI5 22-198; Q95LI8 22-171; Q95LI7 23-181).
T2 construct: whole, on cells; CD3 complex on purified cynomolgus monkey T cells; also called cyno CD3
T2 sequence (Q95LI5 22-198, chain 1 of 3): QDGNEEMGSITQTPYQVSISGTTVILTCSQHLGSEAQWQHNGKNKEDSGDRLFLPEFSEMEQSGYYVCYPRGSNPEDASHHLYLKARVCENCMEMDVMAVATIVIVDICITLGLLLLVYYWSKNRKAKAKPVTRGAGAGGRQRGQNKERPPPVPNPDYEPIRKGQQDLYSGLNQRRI
T2 sequence (Q95LI8 22-171, chain 2 of 3): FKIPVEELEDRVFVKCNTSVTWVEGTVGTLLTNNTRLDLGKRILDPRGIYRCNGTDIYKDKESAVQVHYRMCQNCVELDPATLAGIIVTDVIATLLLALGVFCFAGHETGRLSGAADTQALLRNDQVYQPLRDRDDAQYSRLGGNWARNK
T2 sequence (Q95LI7 23-181, chain 3 of 3): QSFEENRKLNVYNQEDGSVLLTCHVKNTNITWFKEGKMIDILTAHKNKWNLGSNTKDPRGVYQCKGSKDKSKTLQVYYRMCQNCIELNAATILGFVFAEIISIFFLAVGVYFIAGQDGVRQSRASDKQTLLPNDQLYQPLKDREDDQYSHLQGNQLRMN
Nature of the assay: flow cytometry, 25 nM, cyno primary T cells. The method, boiled down: as §1

For assay [3], the target named is T1, human CD3 expressed on cells. Nature of the assay: flow cytometry, 25 nM, Jurkat cells (human primary T cells in c4 also <10). The method, then:
Purified antibodies were confirmed to bind CD3 expressed on cells using the CytoFLEX S or LX flow cytometers (Beckman Coulter). Antibodies were diluted to 25 nM in FACS buffer (PBS+2% FBS) and were incubated with CD3-expressing cells for 30 minutes at 4° C. […] The median fluorescence intensity of the binding signal for each antibody was normalized to the isotype control to obtain a fold over isotype value. An antibody with a fold over isotype (FOI) of ≥10 was considered to be positive for binding.

Positions count from the first letter of the chain named.

T1 sequence (P07766 23-207, chain 1 of 3): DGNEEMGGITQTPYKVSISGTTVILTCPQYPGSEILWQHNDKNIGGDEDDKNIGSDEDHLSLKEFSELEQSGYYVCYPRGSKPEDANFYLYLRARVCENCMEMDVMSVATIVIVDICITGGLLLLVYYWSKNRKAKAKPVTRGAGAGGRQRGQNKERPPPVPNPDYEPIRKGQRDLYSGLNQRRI
T1 sequence (P04234 22-171, chain 2 of 3): as the sequence (Q95LI8 22-171, chain 2 of 3) above, with V5I, K15N, V20I, T32S, N33D, N34I, A64T, N74S, L83V, R141H counted along it
T1 sequence (P09693 23-182, chain 3 of 3): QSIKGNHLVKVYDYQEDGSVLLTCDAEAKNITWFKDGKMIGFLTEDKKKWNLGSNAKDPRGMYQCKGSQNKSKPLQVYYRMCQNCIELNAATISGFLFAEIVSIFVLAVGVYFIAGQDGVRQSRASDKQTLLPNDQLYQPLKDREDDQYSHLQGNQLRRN

B1: mAb 82 (antibody, V domains shown)
VH: QVHLVQSGAEVKKPGASVKVSCKASGHTFTGYYVHWARQAPGQGLEWMGWIYSNSGRTSYSQKFQGRVAMTRDTSISTIYMDLSRLRSDDTAVYYCARLEQLVFDFWGQGTLVTVSS
VL: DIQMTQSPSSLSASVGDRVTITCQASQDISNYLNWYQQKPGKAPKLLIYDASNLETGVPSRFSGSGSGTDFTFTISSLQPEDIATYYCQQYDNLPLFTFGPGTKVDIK
For B1, in assay [1], the “Human primary T Cell Binding (FOI)” value stood at 0.954 FOI. The binding result in assay [2] and in assay [3] was “no binding (tested: FOI >=10 = positive)” in each case.

B2: mAb 84 (antibody, V domains shown)
VH: B1 VH with T28S, S61A, A69T, I79T, D82E, E100D, F106Y
VL: not shown
As for B2, the “Human primary T Cell Binding (FOI)” value in assay [1] turned out to be 0.805 FOI. Also, the binding result in assay [2] and in assay [3] was “no binding (tested: FOI >=10 = positive)” throughout.

B3: mAb 135 (antibody, V domains shown)
VH: EVQLVESGGGLVKTGGSLRLSCVASGFSFKKAWMNWVRQAPGKGLEWVGRIKRNSDGGTTDYAAPVKGRFTLSRDDSKNTLYLQMNSLKTEDTAVYYCTTLDSSSWYVGYYYMDVWGKGTTVTVSS
VL: not shown
On to B3, for which, in assay [1], the “Human primary T Cell Binding (FOI)” value stood at 0.821 FOI. Further, the binding result in assay [2] and in assay [3] was “no binding (tested: FOI >=10 = positive)” throughout.

B4: mAb 105 (antibody, V domains shown)
VH: QVQLQESGPGLVKPSATLSLTCTVSGGSISTYYWSWIRQSPGKGLEWIGYISYSVNTNPSLKSRVTISVDKSKNQLSLNLRSATGADTAVYYCARGGLYGGNAGRFDLWGQGTLVTVSS
VL: EIVLTQSPGTLSLSPGERATLSCRASQSVINNYVAWYQQKPGQAPSLIITGVSRRATGIPDRFIGSGSGTDFILIISRLEPEDFAVYCCQQYGNSPWTFGQGTRVEIK
As to B4, the “Human primary T Cell Binding (FOI)” value in assay [1] worked out at 0.842 FOI. The binding result in assay [2] and in assay [3] was “no binding (tested: FOI >=10 = positive)” each time.

B5: mAb 107 (antibody, V domains shown)
VH: QVQLQESGPGLVKPSETLSLTCTVSGGSISSYCWSWIRQPPGKGLEWIGYIYNIGSTNFNPSLKSRVTISVDTSKNQFSLKLNSVTAADTAVYYCARGGLYSGNGGRFDPWGRGTLVTVSS
VL: EIVLTQSPGTLSLSPGQTATLSCRASQGVRSNYLAWYQQKPGQAPRLLIYGASSRATGIPVRFSGSGSGTGFTLTMSRLEPEDFAVYYCQQYGSSPWTFGQGSKVEIK
For the molecule B5, the “Human primary T Cell Binding (FOI)” value in assay [1] came to 0.743 FOI. The binding result in assay [2] and in assay [3] was “no binding (tested: FOI >=10 = positive)” in each case.

B6: mAb 124 (antibody, V domains shown)
VH: EVQVVESGGDLVQPGGSLRLSCAASGFTFSTYAMTWVRQAPGKGLEWISTISGSGHNTYYADSVKGRFTISRGNSKNTLFLQMNSLRAEDTAVYYCAKENCGGDCLYYMDVWGKGTTVTVSS
VL: DIQMTQSPSSLSASVGDRVTITCRASQSISNYLNWYQQKSGKAPKLLIYFASSLQSGVPSRFGGSGAGTDFTLTISSLQPEDFATYSCQQSYSTPLTFGGGTKVEIK
For the molecule B6, the “Human primary T Cell Binding (FOI)” value in assay [1] came to 0.835 FOI. For the same molecule, the binding result in assay [2] and in assay [3] was “no binding (tested: FOI >=10 = positive)” each time.

B7: mAb 80 (antibody, V domains shown)
VH: QVQLVQSGAEVKKPGASVKVSCKASGYTFAGYYLHWVRQAPGQGLEWMGWINPNSGRTESAQKFQGRVTLTRDTSITTAYMALSRLRSDDTAIYYCTRLEQLVFDYWGQGTLVTVSS
VL: EIVLTQSPDFQSVTPKEKVTITCRASQSIGSSLHWYQQKPDQSPKLLIKYASQSFSGVPSRFSGSGSGTDFTLTINSLEAEDAATYYCHQSSSLPTFGQGTKVEIK
Regarding B7, the “Human primary T Cell Binding (FOI)” value in assay [1] was determined as 0.905 FOI. Also, the binding result in assay [2] and in assay [3] was “no binding (tested: FOI >=10 = positive)” each time.

B8: mAb 89 (antibody, V domains shown)
VH: B7 VH
VL: DIQMTQSPSSLSASVGDRVTITCRASQGISNYLAWFQQKPGKAPKSLIYAASSLQSGVPSKFSGSGSGTDFTLTISSLQPEDFATYYCQQYNSYPITFGQGTRLEIK
With B8, the “Human primary T Cell Binding (FOI)” value in assay [1] came to 0.594 FOI. The binding result in assay [2] and in assay [3] was “no binding (tested: FOI >=10 = positive)” each time.

B9: mAb 91 (antibody, V domains shown)
VH: QVQLVQSGAEVKKPGASVKVSCKASGYTFTGYYIHWVRQAPGQGLEWMGWINPKSGNTVYAQRFQGRVTMTRDTSISTAYMDLSRLKSDDTAVYYCARLEQLVFDYWGQGALVTVSS
VL: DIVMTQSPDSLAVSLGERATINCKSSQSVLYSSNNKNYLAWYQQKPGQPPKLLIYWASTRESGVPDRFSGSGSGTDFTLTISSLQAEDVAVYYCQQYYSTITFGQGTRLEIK
With B9, the “Human primary T Cell Binding (FOI)” value in assay [1] came out at 0.746 FOI. For the same molecule, the binding result in assay [2] and in assay [3] was “no binding (tested: FOI >=10 = positive)” throughout.

B10: mAb 138 (antibody, V domains shown)
VH: QVLLVQSGPEVKKPGASVKVSCKASGYTFTDYYLHWVRQAPGQGLDWMGWINPKSGGTRNAQKFQGRVTMTRDTSISTAYMDLTRLRSDDTAVYYCARVGGELLFDYWGQGTLVTVSS
VL: DIVMTQSPLSLSVTPGEPASISCRSSQSLLHSDGYNYLDWFLQKPGQSPHLLIFLGSNRASGVPDRFSGSGSGTDFTLKISRVEAEDVGIYYCMQALQTPLTFGGGTKVEIK
Take B10: in assay [1], the “Human primary T Cell Binding (FOI)” value amounted to 0.796 FOI. For the same molecule, the binding result in assay [2] and in assay [3] was “no binding (tested: FOI >=10 = positive)” throughout.

B11: mAb 103 (antibody, V domains shown)
VH: QVQLVQSGAEVMKPGASVKVSCKASGYTFTDFYIHWVRQAPGQGLEWMGWINPKSGNTRFAQKFQGRVTMTRDTSIATSYMELSRLRSDDTAVFYCARMGDLLALDYWGQGTLVTVSS
VL: EIVLTQSPATLSLSPGERATLSCRASQSVSSYLAWYQQKPGQAPRLLIYDASNRATGIPARFSGSGSGTDFTLTISSLEPEDFAVYYCQQRSNWYTFGQGTKLEIK
On to B11, for which the “Human primary T Cell Binding (FOI)” value in assay [1] stood at 0.526 FOI. In addition, the binding result in assay [2] and in assay [3] was “no binding (tested: FOI >=10 = positive)” each time.

B12: mAb 104 (antibody, V domains shown)
VH: B11 VH with M12K, K63R, A77T
VL: not shown
Turning to B12, the “Human primary T Cell Binding (FOI)” value in assay [1] was 0.778 FOI. For the same molecule, the binding result in assay [2] and in assay [3] was “no binding (tested: FOI >=10 = positive)” each time.

B13: mAb 87 (antibody, V domains shown)
VH: QVQLVQSGAEMKKPGASVKVSCKASGYTFTDYYLHWVRRAPGHGLEWMGWIYPKSGRRNYAQHFQGRVTMTRDTSINTAYMELSSLRSDDSAVYFCVRLEQLVFDYWGQGTLVTVSS
VL: not shown
With B13, the “Human primary T Cell Binding (FOI)” value in assay [1] amounted to 0.715 FOI. For the same molecule, the binding result in assay [2] and in assay [3] was “no binding (tested: FOI >=10 = positive)” throughout.

B14: mAb 147 (antibody, V domains shown)
VH: QVQLVQSGAEVKKPGASVKVSCKASGYTFTAYHTHWVRQAPGQGLEWMGWIYPKSGRTTYTQKFQGRVTMTRDTSISTVYMELSRLKSDDTAVYYCARVGALLFDYWGQGTLVTVSS
VL: not shown
Turning to B14, the “Human primary T Cell Binding (FOI)” value in assay [1] amounted to 1.58 FOI. Besides, the binding result in assay [2] and in assay [3] was “no binding (tested: FOI >=10 = positive)” in each case.

B15: mAb 148 (antibody, V domains shown)
VH: B14 VH
VL: EIVLTQSPATLSLSPGERATLSCRASQSVSSYLAWYQQKPGQAPRLLIYDASNRATGIPARFSGSGSGTDFTLTISSLEPEDFAVYYCQQRSNWPFTFGPGTKVDIK
As to B15, the “Human primary T Cell Binding (FOI)” value in assay [1] worked out at 1.44 FOI. The binding result in assay [2] and in assay [3] was “no binding (tested: FOI >=10 = positive)” each time.

B16: mAb 139 (antibody, V domains shown)
VH: QVQLVESGGGVVQPGRSLRLSCAASGFTFSSYAMHWVRQAPGKGLEWVAVIWFDGTNKYYTDSVRGRFTISRDNSKNTLYLQMNSLRAEDTAVYYCATERGITETTRGFDYWGQGTLVTVSS
VL: DIQMTQSPSSLSASVGDRVTITCRTSQGIGNDLDWYQQNPGKAPKRLIYATSNLQSGVPSRFSGSGSGTEFTLTISGLQPEDFTTYYCLRHNSYPYTFGQGTKLEIT
Regarding B16, in assay [1], the “Human primary T Cell Binding (FOI)” value came out at 0.678 FOI. Moreover, the binding result in assay [2] and in assay [3] was “no binding (tested: FOI >=10 = positive)” each time.

B17: mAb 108 (antibody, V domains shown)
VH: QVQLVESGGGVVQPGRSLRLSCAASGFTFSSYGMHWVRQAPGKGLEWVAVIWYDGSNKYYEDSVKGRFTISRDNSKNTLHLQMNSLRVEDTAVYYCARGLEFDYWGQGTLVTVSS
VL: DIVMTQTPLSSPVTLGQPASISCRSSQSLVHSDGITYLNWLQQRPGQPPRLLIYKISNRFSGVPDRFSGSGSGTDFTLKISRVEAEDVGVYYCMQATQFPWTFGQGTKVEIK
Turning to B17, the “Human primary T Cell Binding (FOI)” value in assay [1] was 0.772 FOI. Further, the binding result in assay [2] and in assay [3] was “no binding (tested: FOI >=10 = positive)” throughout.

These data come from patent publication US20230295310A1 (ABCELLERA BIOLOGICS, published 2023).
